Laboratory results as given in the RNAGym collection of RNA variant scans (doi:10.7554/elife.80360).

B1: CPEB3 Ribozyme (parent)
chain: GGGGGCCACAGCAGAAGCGUUCACGUCGCGGCCCCUGUCAGAUUCUGGUGAAUCUGCGAAUUCUGCUGU

Variants of: B1
Assay: self-cleavage, relative activity (ratio to wild type); higher = more cleavage; co-transcriptional

Variant	self-cleavage
C29A G56C	0.297
U26G U55A	0.737
U26G U55C	0.787
C27U C63G	0.263
C27U C63A	0.165
C27G U44C	0.145
C27G U44A	0.212
G28C G50U	0.143
G28C G50C	0.168
G28C G50A	0.166
G28C U44G	0.191
C27U C35G	0.14
G28U U36G	0.106
G28U U36A	0.168
C27A U36A	0.207
C29A C54G	0.299
C29A C54U	0.682
C29A U62G	0.269
C29G C33U	0.558
C29A C35A	0.157
G28C U62G	0.209

Variant	self-cleavage
G28U C32U	0.226
G28U C32G	0.217
U26G G31U	0.242
U26G G31C	0.131
C27A C35G	0.256
G28A G31U	0.197
G28A G31A	0.153
C27A U67G	0.635
C27G G31U	0.2
C27A C66U	0.516
G28U C33U	0.155
G28A U61G	0.214
G28U U44A	0.135
G28U U44C	0.181
C27A C63G	0.219
C27A C63U	0.463
C29A G41A	0.215
C29A G41U	0.296
G28A G50C	0.226
C29G A59G	0.675
C27U G41A	0.147

Variant	self-cleavage
C27U U53A	0.25
C27U U53G	0.18
C29G C32U	0.313
U26G G47A	0.893
U26G G47U	0.916
C27U G68C	0.385
G28C G58A	0.156
G28C G58U	0.187
C27U U69A	0.502
C27U G47A	0.459
C27G G48U	0.163
C27G G48C	0.241
C27G G68A	0.228
U26G C66U	0.888
U26G C66A	0.533
C29A C32A	0.297
C27U C29U	0.189
C27U C29G	0.114
G28C G56A	0.181
G28C G56C	0.192
G28A C66U	0.165

Variant	self-cleavage
G28A C66A	0.189
G28A G68A	0.294
C27U U43C	0.285
G28U G31A	0.24
G28U U55G	0.168
G28A U53A	0.198
C27G G56U	0.156
C27G G56A	0.178
C29A U44G	0.521
C29A U44C	0.515
G28C A52C	0.198
G28C A52G	0.174
C29A U49A	0.805
G28C U49G	0.182
G28C U49A	0.126
U26G U64G	0.784
G28U G58U	0.182
G28C G48C	0.135
C27G A51C	0.187
C27A G56A	0.276
